Fewer inactive variants are shown than the library holds.
Tests used:
biotinyl-Phe-oxazolone = assay: self-aminoacylation, catalytic enhancement (BFO) (fold over background); higher = more active; k-Seq, kA / k0A0; sequences stand for … in GGGAAUGGAUCCACAUCUACGAAUUC…UUCACUGCAGACUUGACGAAGCUG
Method in brief: (§1)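 Mutagenized RNA pools with a 21-nt variable region (0.43 μM) were reacted with each biotinyl-aminoacyl-oxazolone at 2–1250 μM for 90 minutes at room temperature, in 50 μL HEPES/NaCl/KCl/MgCl2/CaCl2 buffer containing 5% acetonitrile at pH 6.9–7.0. RNA captured on streptavidin was quantified by triplicate qPCR and by Illumina sequencing. The fraction reacted for each sequence was fit to a pseudo-first-order model with bootstrapping, and catalytic enhancement is the median kA divided by the uncatalyzed rate, taken as the low-activity peak of a bimodal Gaussian fit.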

biotinyl-Met-oxazolone = assay: self-aminoacylation, catalytic enhancement (BMO) (fold over background); higher = more active; k-Seq, kA / k0A0; sequences stand for … in GGGAAUGGAUCCACAUCUACGAAUUC…UUCACUGCAGACUUGACGAAGCUG
Method in brief: as §1

biotinyl-Ile-oxazolone = assay: self-aminoacylation, catalytic enhancement (BIO) (fold over background); higher = more active; k-Seq, kA / k0A0; sequences stand for … in GGGAAUGGAUCCACAUCUACGAAUUC…UUCACUGCAGACUUGACGAAGCUG
Method in brief: as §1

biotinyl-Trp-oxazolone = assay: self-aminoacylation, catalytic enhancement (BWO) (fold over background); higher = more active; k-Seq, kA / k0A0; sequences stand for … in GGGAAUGGAUCCACAUCUACGAAUUC…UUCACUGCAGACUUGACGAAGCUG
Method in brief: as §1

biotinyl-Val-oxazolone = assay: self-aminoacylation, catalytic enhancement (BVO) (fold over background); higher = more active; k-Seq, kA / k0A0; sequences stand for … in GGGAAUGGAUCCACAUCUACGAAUUC…UUCACUGCAGACUUGACGAAGCUG
Method in brief: as §1

biotinyl-Leu-oxazolone = assay: self-aminoacylation, catalytic enhancement (BLO) (fold over background); higher = more active; k-Seq, kA / k0A0; sequences stand for … in GGGAAUGGAUCCACAUCUACGAAUUC…UUCACUGCAGACUUGACGAAGCUG
Method in brief: as §1

| Sequence | self-aminoacylation (biotinyl-Phe-oxazolone) | self-aminoacylation (biotinyl-Met-oxazolone) | self-aminoacylation (biotinyl-Ile-oxazolone) | self-aminoacylation (biotinyl-Trp-oxazolone) | self-aminoacylation (biotinyl-Val-oxazolone) | self-aminoacylation (biotinyl-Leu-oxazolone) |
| --- | --- | --- | --- | --- | --- | --- |
| AUUCCCCUCGUCAUCGAGUGA [Fam2.1 aminoacylation ribozyme variant] | 15.8 | 4.49 | 3.49 | 5.17 | 3.46 | 4.4 |
| UCACACUUCACGCAAUCGGUC [Fam1B.1 aminoacylation ribozyme variant] | 0.767 | 0.81 | 1.03 | 0.908 | 1.21 | 0.873 |
| AAGUUUGCUAAUUGUCGCGAG [Fam3.1 aminoacylation ribozyme variant] | 17.4 | 1.75 | 2.04 | 2.7 | 1.68 | 2.02 |
| GCUACCCUGGUCAUCGAGUGA [Fam2.1 aminoacylation ribozyme variant] | 29.5 | 11.4 | 6.27 | 15.5 | 6.39 | 12.3 |
| AUUCACGUAGCUCAUCGGGUG [Fam2.2 aminoacylation ribozyme variant] | 17.7 | 3.44 | 2.24 | 2.88 | 3.52 | 2.42 |
| CUGCUUCAAACAAUCUGUCUG [Fam1A.1 aminoacylation ribozyme variant] | 4.03 | 0.675 | 0.604 | 1.53 | 0.701 | 0.647 |
| AUUCCUCUAGGUCAUCGGGUG [Fam2.2 aminoacylation ribozyme variant] | 154 | 16.6 | 10.4 | 16.1 | 10.5 | 23.7 |
| AUUACCCAGGUCUUCGAGUGA [Fam2.1 aminoacylation ribozyme variant] | 39.3 | 5.69 | 3.65 | 8.2 | 3.61 | 6.86 |
| CCACACUUCAAGCAAUCGCUG [Fam1B.1 aminoacylation ribozyme variant] | 0.653 | 1.13 | 1.22 | 0.872 | 1.12 | 0.928 |
| CCUCACUGCAAGCAAUCGGUC [Fam1B.1 aminoacylation ribozyme variant] | 1.44 | 0.832 | 1.26 | 1.17 | 1.41 | 1.24 |
| AAGUUGGCUAAGAGUCGCAAG [Fam3.1 aminoacylation ribozyme variant] | 1.91 | 1.68 | 2.02 | 2.13 | 1.53 | 1.98 |
| AUUCACCCAGGUCAACGGGUG [Fam2.2 aminoacylation ribozyme variant] | 19.7 | 3.24 | 1.96 | 3.81 | 2.53 | 4.29 |
| GUACUUCAAACUAUCGGUCUG [Fam1A.1 aminoacylation ribozyme variant] | 1.78 | 1.29 | 1.38 | 1.46 | 1.26 | 1.14 |
| CCACAUUGCAAGCAAUCGGUC [Fam1B.1 aminoacylation ribozyme variant] | 1.99 | 1.67 | 1.75 | 1.58 | 1.68 | 1.87 |
| AAGUUUGCUAAGAGUCGGAAG [Fam3.1 aminoacylation ribozyme variant] | 1.35 | 0.956 | 0.879 | 1.4 | 0.923 | 0.64 |
| AUUACCCUGGGCAUCGCGUGA [Fam2.1 aminoacylation ribozyme variant] | 48.7 | 6.98 | 3.74 | 7.7 | 5.38 | 9.41 |
| CUACUUCAAACAAUCAGUAUG [Fam1A.1 aminoacylation ribozyme variant] | 6.02 | 0.891 | 0.847 | 2.46 | 0.819 | 0.777 |
| CUACUUCAAACAAUCAGGCUG [Fam1A.1 aminoacylation ribozyme variant] | 2.7 | 0.549 | 0.911 | 1.33 | 0.723 | 0.78 |
| AUUACCCUGCUCAUCGAGUCA [Fam2.1 aminoacylation ribozyme variant] | 0.452 | 0.64 | 0.779 | 0.425 | 0.819 | 0.646 |
| AUUACCUUGUUCAUCGAGUGA [Fam2.1 aminoacylation ribozyme variant] | 26.1 | 6.95 | 3.4 | 8.47 | 3.95 | 6.6 |
| AUUCACCUAGGUCAUUCGGUG [Fam2.2 aminoacylation ribozyme variant] | 33.6 | 4.55 | 3.94 | 5.13 | 3.79 | 6.91 |
| GUACUUCAAAAAAUCGGUCUG [Fam1A.1 aminoacylation ribozyme variant] | 7.83 | 1.16 | 1.57 | 7.93 | 1.11 | 1.62 |
| AUUCAGCUAGGUGAUCGGGUG [Fam2.2 aminoacylation ribozyme variant] | 25.3 | 4.52 | 3.84 | 4.6 | 4.04 | 5.32 |
| CUACUUCAAACAAUCGGGCUU [Fam1A.1 aminoacylation ribozyme variant] | 1.14 | 1.12 | 1.55 | 1.3 | 1.32 | 0.955 |
| CCACAAUUCAAGCAAUCGUUC [Fam1B.1 aminoacylation ribozyme variant] | 1.06 | 0.815 | 0.909 | 0.719 | 0.864 | 0.713 |
| CCACACUUCUAGCAACCGGUC [Fam1B.1 aminoacylation ribozyme variant] | 0.818 | 0.681 | 0.817 | 0.402 | 0.946 | 0.868 |

| Sequence | self-aminoacylation (biotinyl-Phe-oxazolone) | self-aminoacylation (biotinyl-Met-oxazolone) | self-aminoacylation (biotinyl-Ile-oxazolone) | self-aminoacylation (biotinyl-Trp-oxazolone) | self-aminoacylation (biotinyl-Val-oxazolone) | self-aminoacylation (biotinyl-Leu-oxazolone) |
| --- | --- | --- | --- | --- | --- | --- |
| CUACUUCAAACAACCAGUCUG [Fam1A.1 aminoacylation ribozyme variant] | 0.953 | 0.899 | 1.02 | 0.573 | 0.797 | 0.668 |
| UCACACUUCAAGCAAUCGGUA [Fam1B.1 aminoacylation ribozyme variant] | 1.13 | 1.1 | 0.993 | 1.49 | 1.12 | 1.04 |
| CUACUUCAACCAAACGGUCUG [Fam1A.1 aminoacylation ribozyme variant] | 0.71 | 0.704 | 0.745 | 0.55 | 0.86 | 0.871 |
| AUUACCCUGGUGAUAGAGUGA [Fam2.1 aminoacylation ribozyme variant] | 53.4 | 9.04 | 3.75 | 8.54 | 3.62 | 8.59 |
| CAACACUUUAAGCAAUCGGUC [Fam1B.1 aminoacylation ribozyme variant] | 1.03 | 0.762 | 0.96 | 0.886 | 0.846 | 0.854 |
| CCACACUUCAAGCAUGCGGUC [Fam1B.1 aminoacylation ribozyme variant] | 0.814 | 1.57 | 1.41 | 2.22 | 2.27 | 1.62 |
| AGUACCCUGGUCAUCGGGUGA [Fam2.1 aminoacylation ribozyme variant] | 82.1 | 17.7 | 9.32 | 19.6 | 9.99 | 19 |
| CUACUUCAAACAAGCGGACUG [Fam1A.1 aminoacylation ribozyme variant] | 0.818 | 0.81 | 0.91 | 0.644 | 0.896 | 0.631 |
| CAACACUUCAAGCCAUCGGUC [Fam1B.1 aminoacylation ribozyme variant] | 1.04 | 1.35 | 1.35 | 1.24 | 1.48 | 1.74 |
| UUACUUGAAACAAUCGGUCUG [Fam1A.1 aminoacylation ribozyme variant] | 1.52 | 1.32 | 1.15 | 0.889 | 1.03 | 1.11 |
| AAGUAUGCUAAUAUUCGCAAG [Fam3.1 aminoacylation ribozyme variant] | 1.45 | 1.76 | 1.95 | 2.45 | 1.46 | 2.04 |
| CUACUUAAAACAAUCGUUCUG [Fam1A.1 aminoacylation ribozyme variant] | 0.579 | 0.592 | 0.568 | 0.503 | 0.57 | 0.432 |
| GAGUUUGCUAGUAGUCGCAAG [Fam3.1 aminoacylation ribozyme variant] | 1.92 | 1.28 | 1.21 | 0.876 | 1.04 | 0.89 |
| AAGUUUGCUAAUAGGUGCAAG [Fam3.1 aminoacylation ribozyme variant] | 0.732 | 0.706 | 0.728 | 0.526 | 0.836 | 0.609 |
| AUGACCCUAGUCAUCGAGUGA [Fam2.1 aminoacylation ribozyme variant] | 26.6 | 6.07 | 3.13 | 7.34 | 3.27 | 5.61 |
| AUUACCCUGGUCGUCGCGUGA [Fam2.1 aminoacylation ribozyme variant] | 48.7 | 6.7 | 3.98 | 8.26 | 4.34 | 8.84 |
| CUACUUCGAACAAUCGGUCGG [Fam1A.1 aminoacylation ribozyme variant] | 2.37 | 1.34 | 1.02 | 0.974 | 0.922 | 1.41 |
| CCACAAUUGAAGCAAUCGGUC [Fam1B.1 aminoacylation ribozyme variant] | 0.687 | 0.746 | 0.913 | 1.16 | 0.869 | 0.716 |
| AUUACGCUGGUCAUCGAGUUA [Fam2.1 aminoacylation ribozyme variant] | 0.893 | 1.54 | 1.28 | 0.917 | 1.43 | 1.41 |
| AUCCACCUAGGACAUCGGGUG [Fam2.2 aminoacylation ribozyme variant] | 39.9 | 3.23 | 3.12 | 5.03 | 3.38 | 4.49 |
| CUACUUCAAAAAAUCGAUCUG [Fam1A.1 aminoacylation ribozyme variant] | 1.46 | 0.601 | 0.663 | 0.604 | 0.585 | 0.6 |
| CCUCACUUCAUGCAAUCGGUC [Fam1B.1 aminoacylation ribozyme variant] | 1.17 | 0.642 | 0.734 | 0.804 | 0.773 | 0.735 |
| AAGUUUGCUAUGAGUCGCAAG [Fam3.1 aminoacylation ribozyme variant] | 0.664 | 0.644 | 0.692 | 0.54 | 0.974 | 0.778 |
| CGACUUCACACAAUCGGUCUG [Fam1A.1 aminoacylation ribozyme variant] | 1.07 | 0.934 | 1.05 | 1.01 | 1.14 | 1.23 |
| AUUCAACUAGGUCAUCGGGUC [Fam2.2 aminoacylation ribozyme variant] | 1.77 | 1.14 | 1.02 | 1.22 | 0.979 | 1.15 |

— the supplement of paper PMC9233669
